In experiment [1] the test system is talin1 / talin2 (HEK293T cells). In words: Streptavidin pull down of Bio-GFP-KANK1 combined with mass spectrometry. The class given is binding, human. As to the method: Streptavidin-based pull down assays of biotinylated proteins expressed using pBioGFP-C1 constructs transfected in HEK293T cells was performed and analyzed as previously described ([van der Vaart et al., 2013]). For mass spectrometry sample preparation, streptavidin beads resulting from pull-downs assays were ran on a 12% Bis-Tris 1D SDS-PAGE gel (Biorad) for 1 cm and stained with colloidal coomassie dye G-250 (Gel Code Blue Stain Reagent, Thermo Scientific). The lane was cut and treated with 6.5 mM dithiothreitol (DTT) for 1 hr at 60°C for reduction and 54 mM iodoacetamide for 30 min for alkylation. The proteins were digested overnight with trypsin (Promega) at 37°C. The peptides were extracted with 100% acetonitrile (ACN) and dried in a vacuum concentrator. For RP-nanoLC-MS/MS, samples were resuspended in 10% formic acid (FA) / 5% DMSO and was analyzed using a Proxeon Easy-nLC100 (Thermo Scientific) connected to an Orbitrap Q-Exactive mass spectrometer. Samples were first trapped (Dr Maisch Reprosil C18, 3 μm, 2 cm × 100 μm) before being separated on an analytical column (Agilent Zorbax 1.8 μm SB-C18, 40 cm × 50 μm), using a gradient of 180 min at a column flow of 150 nl min^-1. […]

In experiment [2] the test system is microtubule plus ends in HeLa cells. In words: Ratio of microtubule growth rate in the cell center and at the cell edge. The class given is cell-based, human. To be noted: depletion and rescue, EB3-mRFP. As to the method:
nEB3-mRFP dynamics was recorded by 0.5 s interval time lapse TIRF imaging. Microtubule growth was measured using kymographs obtained from EB3-mRFP time lapse image series, plotted and presented as previously described ([van der Vaart et al., 2013]). Ratio of microtubule growth in cell center to periphery was obtained as values for individual cells. Microtubule growth trajectory angle to the cell edge was manually measured in ImageJ using tracks obtained by maximum intensity projection of EB3-mRFP image series.

B1: KANK1: full-length KANK1, BioGFP- or GFP-tagged; siRNA-resistant version for rescue (protein)
chain: MAHTTKVNGSASGKAGDILSGDQDKEQKDPYFVETPYGYQLDLDFLKYVDDIQKGNTIKRLNIQKRRKPSVPCPEPRTTSGQQGIWTSTESLSSSNSDDNKQCPNFLIARSQVTSTPISKPPPPLETSLPFLTIPENRQLPPPSPQLPKHNLHVTKTLMETRRRLEQERATMQMTPGEFRRPRLASFGGMGTTSSLPSFVGSGNHNPAKHQLQNGYQGNGDYGSYAPAAPTTSSMGSSIRHSPLSSGISTPVTNVSPMHLQHIREQMAIALKRLKELEEQVRTIPVLQVKISVLQEEKRQLVSQLKNQRAASQINVCGVRKRSYSAGNASQLEQLSRARRSGGELYIDYEEEEMETVEQSTQRIKEFRQLTADMQALEQKIQDSSCEASSELRENGECRSVAVGAEENMNDIVVYHRGSRSCKDAAVGTLVEMRNCGVSVTEAMLGVMTEADKEIELQQQTIESLKEKIYRLEVQLRETTHDREMTKLKQELQAAGSRKKVDKATMAQPLVFSKVVEAVVQTRDQMVGSHMDLVDTCVGTSVETNSVGISCQPECKNKVVGPELPMNWWIVKERVEMHDRCAGRSVEMCDKSVSVEVSVCETGSNTEESVNDLTLLKTNLNLKEVRSIGCGDCSVDVTVCSPKECASRGVNTEAVSQVEAAVMAVPRTADQDTSTDLEQVHQFTNTETATLIESCTNTCLSTLDKQTSTQTVETRTVAVGEGRVKDINSSTKTRSIGVGTLLSGHSGFDRPSAVKTKESGVGQININDNYLVGLKMRTIACGPPQLTVGLTASRRSVGVGDDPVGESLENPQPQAPLGMMTGLDHYIERIQKLLAEQQTLLAENYSELAEAFGEPHSQMGSLNSQLISTLSSINSVMKSASTEELRNPDFQKTSLGKITGNYLGYTCKCGGLQSGSPLSSQTSQPEQEVGTSEGKPISSLDAFPTQEGTLSPVNLTDDQIAAGLYACTNNESTLKSIMKKKDGNKDSNGAKKNLQFVGINGGYETTSSDDSSSDESSSSESDDECDVIEYPLEEEEEEEDEDTRGMAEGHHAVNIEGLKSARVEDEMQVQECEPEKVEIRERYELSEKMLSACNLLKNTINDPKALTSKDMRFCLNTLQHEWFRVSSQKSAIPAMVGDYIAAFEAISPDVLRYVINLADGNGNTALHYSVSHSNFEIVKLLLDADVCNVDHQNKAGYTPIMLAALAAVEAEKDMRIVEELFGCGDVNAKASQAGQTALMLAVSHGRIDMVKGLLACGADVNIQDDEGSTALMCASEHGHVEIVKLLLAQPGCNGHLEDNDGSTALSIALEAGHKDIAVLLYAHVNFAKAQSPGTPRLGRKTSPGPTHRGSFD
modifications: biotinylated on the Bio tag (by BirA); left off: biotinylation (Bio) tag, end not stated, kept | GFP, end not stated, kept
notes: full-length KANK1, BioGFP- or GFP-tagged; siRNA-resistant version for rescue
For B1, the “binding partner found by mass spectrometry: talin1 (in words)” value in experiment [1] is “we identified talin1 among the strongest hits”. Besides, the “microtubule growth, fold slower at cell margin/edge than in cell center” value in experiment [2] was around 2.5 fold.
